Consider 19 sequences from a protein production outcome set (Wang et al. 2014).

A short description of this series: label from the status in PepcDB records.
Regarding “MNPALVALGLTLFAGMATGIGSAIAFFARRTNFRFLSVATGFSAGVMVYVSFVEILPKGLDSLVRSCGESWGHWLNAASFFGGMLCIGLIDAVIPAAKNPHEIHADHEIAPLHDRSAPLPDFGSLAADPRCAPTGTHDHRPPQRHLLRMGLFTALAITIHNFPEGMATFLAALESPRVGAAIAVAIALHNIPEGVSVSVPIFYATGNRRKAFALSLLSGMAEPVGAAIGYLALLLFSGGASGAIPDQVTGALFGGVAGIMVYISLDELLPASRAYGKGHDSLLGLVGGMAVMALSLLLMK”, the protein production entry is listed as “failed”. With “MSWTVVYSAQAKQDLRNIFEYIAHSLCSPDAAKSQTRRIMAEIHSLDEMPLRYRIYDDEPWRSQGLRFFPVDYYLVFYLPVASANTVKIVRIMYGGRDVKKHLEEELLEHHHHHH”, the protein production result was “failed”. “MSLAISITMETFYSLYPAVKHLHLTLIAVSVLFFVVRFVLHLRQSALMGKKVFKVAPHVIDTFLLLSGLVLCFMIKQYPFVDPWLTEKIGAVVAYIALGVIAIKANRNKLFKVFAFLGAIGWLVYAAKLAHFKQAVLLG”: the protein production entry is given as “failed”.

For the sequence “MTETESKWDEKLKRFFKDYYWNEILQLANEYPDQRSLAVDFTDIEKFDRDLSREFLEHPGELISAAEAALKEIDLPVEKNLEQAHVRVIKIPNRIPIRELRSKHLTRFVAIEGMIRKATEVRPRITKAAFQCLRCGHLTIVEQNSFKFEEPFAGCEEETCGKKGPFKVSIEDSTFIDAQKLQIQESPENLKGGSQPQSLEVDSEDDLTGNVTPGDRVIINGVLKSRQRTLKDGKSTFYDLILEANSIERLDKDYDELEISAEEEEQILELSRDPAIYEKIISSIAPSIYGYEDIKEALALQLFSGVVKNLPDGSRTRGDIHMMLVGDPGIAKSQLLRYVVKLSPRGVFASGRSASASGLTAAAVKDDMNDGRWTIEGGALVMADMGVAAVDEMDKMRTEDKSALHEAMEQQTISIAKAGIIATLKSRCALLGAANPKYGRFDRYEGLADQINMPPALLSRFDLIFVLLDTPNHSLDSRIANHILQSHYAGELSEQRQKLPGSTISEEFVDAEMEIIEPVIAPEFMRKYIAFARKNVYPVMEEDTRHHLINFYTDLRRSGEGKNTPVPVTARQLEALVRLSEASARVRLSNIVTLEDAKRTIRIVMNCLKNVGVDPETGALDADILASGTSMSQRNKIKLLKDIIKKVSDRHPGSKAPLEEVYAEAESEHGIDRGHAEEYIKKMKQRGDILSPDQTHIRLIN”, the protein production result is recorded as “failed”. Regarding “GDIGGIAQITSSLFLGRGSVASNRHLLQARGITCIVNATIEIPNFNWPQFEYVKVPLADMPHAPIGLYFDTVADKIHSVSRKHGATLVHCAAGVSRSATLCIAYLMKFHNVCLLEAYNWVKARRPVIRPNVGFWRQLIDYERQLFGKSTVKMVQTPYGIVPDVYEKESRHLMPYWG”, the protein production result is “failed”. In the case of “MPSQLGITLKQVRLQQHLSQATVATGICAQSMLSAIENGKYTPNATLLMRLCQRLKISLDQLSLAENFTISDLEQINDRLAKLCNHHRYADLREFLLTDAVQARLTTDVQLAAYYYYLGITDFQLGHLTDAQQQFQLALASAPAQHRTTLSRLCWMSLALIHASRQQANASEEAMTQAVTQLKTAPYEANLNSLFYLAAVSHLKLNQLTIAAQWLERGIDFATDHDSHYMLANDYHLLAVIASRSEQIDQQRTAQATEHVLTTLFHESIYDRLD”, the protein production entry is recorded as “failed”.

On to “MASKPEKRVASSVFITLAPPRRDVAVSEEVGQAACEARRARPWEMLPTKTPGAAVGRSPKTWTPSGKTNASLSGVTPQLSNGGCSLPPPSLNEEDLDLPPPPPPPSAYLPLPEEEPPVLPGKSLISDLEQLHLPPPPPPPPPQAPSKGSSVHPPPGHAIPSEEELPPPPEEPVTLPEREVSTDVCGFCHKPVSPRELAVEAMKRQYHAQCFTCRTCRRQLAGQRFYQKDGRPLCEPCYQDTLEKCGKCGEVVQEHVIRALGKAFHPPCFTCVTCARCISDESFALDSQNQVYCVADFYRKFAPVCSICENPIIPRDGKDAFKIECMGRNFHENCYRCEDCSVLLSVEPTDQGCYPLNDHLFCKPCHLKRSAAGCC”, for which the protein production entry is “failed”.

In the case of “LRKQVEELFERKYAQAIKAKGPVTIPYPLFQSHVEDLYVEGLPEGIPFRRPSTYGIPRLERILLAKERIRFVIKKHELLNSTREDL”, the protein production entry is listed as “not failed”.

Consider “MKKQYWWIIVTYILMQLSGVVGLPLLLKTGLYDNRGFTIEEKGQIITGHWAIISFFIALCIVLWLLRTDIRDRHLDPMRSSVPATIGWIFIGFFLAIISQSIAGMIEMYVFGVPRGSENTDRLLDIARTIPWFLIVVSIIGPILEEIVFRKILFGTLYKKFNFFIAAIISSLVFATIHFDFTHLLVYTAMGLVFAFLYVKTKRIIVPIAAHVAMNTLVAIGQIFMSNEQIQEMIKEAEKMQGFIGGFFV”, for which the protein production result was “failed”. With “LRGMLPGSKLCEKKIVLSPSANMAAELKSEGKLFMLKRLRLADLEPMAIETSLLPINRFPSLENRNFENESLYEILEEEYNIKMTKAQQKIEVRMPTPQESELLDINYTIPVFHFKQVTFDQNDTIFEVAHSVYRGDRYEIETEIYR”, the protein production result is recorded as “failed”. “NITPLKEVQLALAEREAMMQALFDQASQFTALLTPTGKVVKVNQRALDFAGITVDEIVDQDFWETPWWQASEQLKADLKSAIHQAAQGILIRYDVENLGNNGQKVILDFSIRPIYDTDQRIIFLLCEGRDITDKFRIQEALAESEERFRQTFQTTAVSSALISLD”: the protein production entry is “failed”.

Turning to “NKEFTWTSALTFTLNNEKVKSLIGGTADHVKNEDYYLSIGYPVNSFYAPKIDGMWQLGEETDAAAFGCAPGDIKINVPGMIKEADGKFYKVGDDGQPLTDKNGDIIYYTKDNKYTYSDADSQVLGHNAPKWTMGFQNSFTYKNFDLTIYAYFRWGQMINYEMLGWYDSTGKGNFPTYFNYWTESNPSNDFPALNANRETKSYIGYGSLNYVDGSFFKIKNITLGYTFPERLLKNAGISKCRLYATITNPLTVAKSHLLKDYDPEMNGALKYPLSKQLVFGVNVSF”, the protein production entry is “failed”.

As to “VIVDSVGNVLSDGDTVSITKTIKVKGAQQPLKSGMKARNIRLKPEVGTGPEDHNIECKIDGFGQMILKPAVVKKIV”, the protein production result is “failed”. “MLFGDSVAIAFAQVSIHSRSKGHSAVAAAAYRSGARLYDDRIGRAYDFSKRDDVAFSEILLPDGTTDSFLERDYLWNEVERAENRSNSQLCKDFVLALPRELNLEQQIELAKRFARTHFVEKGLPADIAIHDHGDGNPHAHILIPTRRLENNRFSKYKARDLNPVFAKGFLVEQDYWGEQWREMQNEFFIENNLDLQVDANHLIAERHRGKHHNANAHYLLEENQLIQQARMELTRDNIDLVIDHLSTQYSVFTRRDVERLLFKTFQASDSPQEYLQFVERVLGHQDLVALGDNNKGEPSFTTRTHLMQEAQLLHDIEAMMVSKNHVVHQPIDSLAQQYRLSEEQYEAFRYITQSPDISVVIGRPGTGKSYLLKPLNEYYIQAGMEVIGAALSGKVAKALQAETGITSSTIKSLSYRLANDMMQLSDKHVLIIDEAGMVDFSSMGYLIKEAHKAGSKVVLIGDPDQLKPIQKGEIFRGIAARTGYIELENIKRQQDLGDRQASLNLAKGDIDKAIQHYQDKGAITITDTKLQAIEQVVADWKQDLESTNMADSIMLSYTRKAVNHLNDLAREALIVENKIGEENIVYQGLERSLKISTGERLLLRENNKVLGVRNGDTATVKEINVQQMKIQLDSGELLIIPKEYKALDYAYALTVHKSQGMTAKKVRVLIDSKYWDRNLSFVAMTRHKEQLNIYADKENHPTEQALKQTLSRSSTKDNVIDWPLDFAIRAGFDSDSLISRALNHIVGVGHKIKQAYNFIVNYEASLLKARHQERFQDIGQAIADAKQEALKVDTKEFESNDCKTSEQSFGILKKDFPQLVELETLIKRRQRMTGYFAEKTDKQIMALTQQLLTNKTFANQVKYQVPEFYQKLQSIDNKQKEKALLQNH”: the protein production entry is on record as “failed”. As to “MNKLILISGLMLFSFFFGAGNLIFPPMLGYTAQENMWVSMTGFAITGILLPYITVIVVAYMNGGVESIGNKVHPIFGTVFAICIYLSIGALYGIPRAANVAYEIGTNHVLPVHNHFTLIIFSLIFFLVVYLIALYPNRIIDNLGKYLTPILIIIIAVLCILVIINPEGSIGQASGEYAQTPIVSGILEGYFTMDLVAALAFSVVIVQMFKMSGVNDHKTLVKNVIKSGLISAILLLIIYFALAYVGATTSHEGFKDGTGILTFNSLRVFGSIGNLLFGVIVILACLTTCIGLVNACAAFAMKKLPKISYKMFVLIFSLLGFLVSTLGLELILQIAVPLLTFIYPTSIVLVLISLVSIFIPFEMKYAFILPTLMTLFISLLQIFNDFNLFQPLISLYKVLPLSDIQLSWLLPFIILLFIGLIIDYFLKNKTVSTS”, the protein production entry is “failed”.

Consider “MTKMYINTIIEYIDSNIAYSPIVFFSLLILAGLNVPISEDAIVLMGGILSSRKNEYTILIFLGIFWGAYLGDIISFYIGKLMGNKLFKNKKDNNLLDKINYYYGQYGVLTLFIGRFIPFGVRNAIFMSAGMGNMKSNLFIVSDFFATLLSIVVYFTLSFKLGQSFEIIFSKIKIIIFAIFIAVIATTIIIYVIKKNKKVDKNLK”, for which the protein production entry was “failed”. As for “MVKLGCSFSGKPGKEAGDQDGAAMDSVPLISPLDVSQLQPSFSDQVVINTQTEYQLTSADQPKKFADLEGQRLACSHSEEGRRLPTARMIAFAMALLGCVLIMYKAIWYDQFTCPDGFLLRHKICTPLTLEMYYTEMDPERHRSILAAIGAYPLSRKHGTEMPAVWGNNYRTAKEEHKGTTPAAMAVSTAAAAAAAEGTEPSGKSLDTREKEDPQKAEGVPSQPPK”, the protein production entry is “failed”. Next, “MGSSSYAVIPGAAPRSGRRSIRAVLVLALTAGVATVVPAAQADTSTPAAAPVAAKPYMGWSSWSMQSSKYPGLNPDGDYSYLTEANVLKQTDALASKLKKYGYDHVNIDAGWWMDKNWKTQFDQYGRQTPDPVRFPHGMKSVADHIHSKGLKAGIYLPVGLEKGAYGDGKTPISKAPGCTTADIVYSDLRTTNGWDNAYKIDFDKSCAQKYIDSQAQMFADWGYDFLKLDGVGPGSFKSGDNYNNVADVAAWQKAIAATGRPIHLELSWSLDIGHAADWKKYSNGWRIDTDIECYCNTLVTWENSVNDRWDDAPAWSSKAGPGGWNDLDAIDVGNGEMDGLTKAERQSYMTLWAINKSPLFTGDDLTKLDSYGVSLLTNKEVIAVDQNTSPVARPVTPVGDQQVWGTKNADGSYTVALFNLGDSPASVTAHWASFGFTGNASVRDLWNKTNLGTHKNKITEALPAHGSRLFTIKPGGGTLATTGYEAEAAANTLSGNASVGGCDACSGGKKVGNLYTGGKLRINDITVKKDGIYTVKVAYVSGDPRSVTVLSNSGNGTSLKFPSTGDWSTAETVSVQLALKAGSNTITFDSGSGYAPDIDRIVVPQSV”: “failed”; “MLTFEKVLEIFADYLTADETIEVYISRHGCVRVEFDQDFHYCSGEVCHTPKELFNLLADDYRTYVEIELTKGRRELTEDDEREADALCKRHLERWREKLE”: “failed”.
